Reference: patent publication US6942981

Target: GST-DLG1 PDZ domains 1-2 fusion protein (human) (UniProt Q12959)
Assay: variant of the G assay; 100 uM unlabeled 8-mer with 20 uM biotin-labeled AA2L on immobilized GST-DLG1

percent inhibition of labeled AA2L CLASP-2 peptide binding: > 50%
Substance: CLASP-2 C-terminal 8-mer peptide MTSSSSVV (unlabeled)
